Each block holds one binder with its values, some of them ahead of it.
Columns and labels:
Settings in all cases: one partner purified
[1] = target: T1, endogenous Syt1 on the surface of live hippocampal neurons (uPAINT) (Rattus norvegicus (assumed), UniProt P21707); assay: single-molecule imaging on live neurons (uPAINT); live hippocampal neurons (21-22 DIV) in high-K+ buffer with 1 nM labelled nanobody complex, HILO, 50 Hz for 320 s, 37 °C
T1 construct: Synaptotagmin 1 (Syt1), endogenous; also called surface-exposed Syt1; source: endogenous, live hippocampal neurons (21-22 DIV)

[2] = target: T2, endogenous Synaptotagmin 1 of primary hippocampal neurons (proximity labelling and PLA) (rat (endogenous in primary hippocampal …, UniProt P21707)); assay: proximity labelling; NbLumSyt1-APEX2 taken up by live primary neurons (30 min, with biotin-phenol), 1 mM H2O2 for 30 s; streptavidin beads, LC-MS/MS; controls: no nanobody, NbALFA-APEX2
T2 construct: Synaptotagmin 1 (Syt1), endogenous; spectra searched against the Rattus norvegicus proteome (UP000234681); neurons 'in most cases' from Wistar rat pups; also called Syt1; Syt1-lum; source: endogenous, live primary hippocampal neurons

[3] = target: T3, endogenous human Syt1 of human iPSC-derived neurons (Homo sapiens, UniProt P21579); assay: immunostaining of cells or tissue; live staining of 80-day-old human iPSC-derived hypothalamic neurons with 5.5 µM pHluorin-labeled nanobody, 20 min at 37 °C, with 30 mM KCl or 1 µM TTX, after blocking the surface pool with unlabeled nanobody; fixed and stained with anti-GFP, anti-Syt1, anti-TUBB3
T3 construct: Synaptotagmin 1 (Syt1), human, endogenous; also called endogenous Syt1; source: endogenous, live human iPSC-derived hypothalamic-like neurons

[4] = target: T4, endogenous Synaptotagmin 1 of wild-type mouse neurons / brain (Mus musculus, UniProt P46096); assay: co-IP; GFP-tagged nanobody preloaded on GFP Selector beads; lysate of WT or Syt1 KO mouse brain, 1 h at 4 °C; blot with a Syt1 cytoplasmic antibody
T4 construct: Synaptotagmin 1 (Syt1), mouse, endogenous; On live neurons in the uptake experiment; in a detergent lysate in the immunoprecipitation; also called endogenous Syt1; Syt1; source: endogenous, WT mouse brain lysate (methods; the legend says mouse primary neurons); endogenous, on live WT mouse primary neurons
T4 sequence (P46096 whole entry): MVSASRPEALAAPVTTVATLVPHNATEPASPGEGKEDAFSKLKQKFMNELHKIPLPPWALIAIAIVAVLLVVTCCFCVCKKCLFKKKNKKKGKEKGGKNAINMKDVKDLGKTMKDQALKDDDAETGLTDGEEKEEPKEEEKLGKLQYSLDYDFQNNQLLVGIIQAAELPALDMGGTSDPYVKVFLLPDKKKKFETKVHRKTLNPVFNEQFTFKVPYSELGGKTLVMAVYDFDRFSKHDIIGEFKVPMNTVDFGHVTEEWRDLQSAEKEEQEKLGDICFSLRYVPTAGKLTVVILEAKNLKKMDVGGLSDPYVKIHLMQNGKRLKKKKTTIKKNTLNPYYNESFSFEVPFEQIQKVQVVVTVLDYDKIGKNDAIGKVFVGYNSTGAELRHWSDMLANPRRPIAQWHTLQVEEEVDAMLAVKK

T1 sequence (P21707 whole entry): as the sequence (P46096 whole entry) above, with R6H counted along it
T3 sequence (P21579 whole entry): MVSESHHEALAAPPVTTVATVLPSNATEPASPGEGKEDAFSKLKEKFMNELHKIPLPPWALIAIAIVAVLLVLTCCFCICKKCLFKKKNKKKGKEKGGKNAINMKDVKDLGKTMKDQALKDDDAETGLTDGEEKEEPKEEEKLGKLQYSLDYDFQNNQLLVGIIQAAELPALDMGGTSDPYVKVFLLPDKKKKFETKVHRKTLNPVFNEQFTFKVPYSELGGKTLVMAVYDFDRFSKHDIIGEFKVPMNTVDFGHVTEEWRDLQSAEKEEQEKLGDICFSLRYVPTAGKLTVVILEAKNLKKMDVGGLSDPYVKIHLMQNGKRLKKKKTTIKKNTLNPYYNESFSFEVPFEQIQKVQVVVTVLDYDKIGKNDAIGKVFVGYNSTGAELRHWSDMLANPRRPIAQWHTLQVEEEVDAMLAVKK
T2 sequence (P21707 whole entry): as the sequence (P46096 whole entry) above, with R6H counted along it

B3: NbLumSyt1-pHluorin (VHH)
VHH: EVQLVESGGGLVQTGGSLRLSCTASGSIGSISVMGWYRQVPGTQYELVAGISRGGSTWYEDSVKGRFTISRDNAKNTLYLQMNSLKPEDTGMYYCAGGDYSDRLGSWGQGTQVTVSS
notes: alpaca nanobody clone 1F12; as the nanobody of m1 (PDB 8B8I chain A); In uPAINT it was precomplexed with an anti-GFP nanobody carrying Atto647N (a label); A version with a TEV site in the linker also exists; also called NbSyt1-pH; pHluorin-labeled Syt1 nanobody
binding result [1]: binds
binding result [3]: binds

B4: NbLumSyt1 fused to a GFP tag (VHH)
VHH: EVQLVESGGGLVQTGGSLRLSCTASGSIGSISVMGWYRQVPGTQYELVAGISRGGSTWYEDSVKGRFTISRDNAKNTLYLQMNSLKPEDTGMYYCAGGDYSDRLGSWGQGTQVTVSS
notes: alpaca nanobody clone 1F12; as the nanobody of m1 (PDB 8B8I chain A); Held on GFP Selector beads in the IP; detected with anti-GFP after uptake in neurons; also called GFP-tagged nanobody
binding result [4]: binds

Continued, values first:

binding result [1]: binds
B1: NbLumSyt1-HALO bound to the Halo-ligand JF549 (VHH)
VHH: EVQLVESGGGLVQTGGSLRLSCTASGSIGSISVMGWYRQVPGTQYELVAGISRGGSTWYEDSVKGRFTISRDNAKNTLYLQMNSLKPEDTGMYYCAGGDYSDRLGSWGQGTQVTVSS
notes: alpaca nanobody clone 1F12; as the nanobody of m1 (PDB 8B8I chain A); also called NbLumSyt1-HALO/JF549; NbLumSyt1-Halo/JF549; source: produced and purified via NanoTag Biotechnologies

binding result [2]: binds
B2: NbLumSyt1-APEX2 (VHH)
VHH: EVQLVESGGGLVQTGGSLRLSCTASGSIGSISVMGWYRQVPGTQYELVAGISRGGSTWYEDSVKGRFTISRDNAKNTLYLQMNSLKPEDTGMYYCAGGDYSDRLGSWGQGTQVTVSS
notes: alpaca nanobody clone 1F12; as the nanobody of m1 (PDB 8B8I chain A); also called Nb-APEX2

Reference: paper PMC13185310, “A versatile nanobody platform for live and super-resolution imaging of synaptic vesicle dynamics and plasticity in rodent and human neurons” (Journal of Nanobiotechnology, 2026)
